Measured values published in the DeepSol protein solubility set.

Experiment: soluble on expression in E. coli; label from the status in PepcDB or PDB records

| Sequence | soluble on expression in E. coli |
| --- | --- |
| MKAFDQVNHSLLLQKLHDFGINPLFCNWFHDFLSSRTFSVKVNNHIDPNIHPISSGVPKGSVSGPFLFLIFINSLLLSVPPSISCSAFADDLKVYSHSPPLIQTTIDLITTWSENNKLPLAVHKAALLNKLGFSSNCVLLLAPLINSLVCRLLAASRTGVSTVAHSKTCLLHLGKKNPKTVYKINNLPISPSNIARDLGILTDSKLTFKPHIKKIVSLALLRCKQLLKSFKSLCPEFYCNLFKTYILPLIEYGSAVYSPKPSSSLSTLLEKPLRWYSQKVLQKFNVSYSLYNDRLKSLNLHSIRHRRLKSKLILLYKFCCGTSFLRRKETFFKLSTSSRRPMRIICHNPSSNNFFSDTISFWNAITNNCDTFLSPIHFENLVDNSITRL | not soluble |
| MKAHHILKVTKQYNPTEDLEFNPDLDGELVAGADNLPSVEIQVEKIADRQRQITARVQIPQPVEQVWQVLTNYEALADFIPNLAKSSLLEHPNGGIRLEQVGSQRLLNFKFCARVVLDLEEYFPKEINFQMVEGDFKGFSGNWCLQPYALGNVIGTDLCYTIQVWPKLTMPITIIERRLSQDLRSNLLAIYQRVECLANQSLLEHHHHHH | soluble |
| MKAKTLIDAYEAFCPLDLSMEGDVKGLQMGSLDKDIRKVMITLDIRESTVAEAIKNEVDLIITKHAPIFKPLKDLVSSPQRDILLDLVKHDISVYVSHTNIDIVPGGLNDWFCDLLEIKEATYLSETKEGFGIGRIGTVKEQALEELASKVKRVFDLDTVRLIRYDKENPLISKIAICGGSGGEFYQDAVQKGADVYITGDIYYHTAQEMLTEGLFAVDPGHHIEVLFTEKLKEKLQGWKEENGWDVSIISSKASTNPFSHL | not soluble |
| MKALTARQQEVFDLIRDHISQTGMPPTRAEIAQRLGFRSPNAAEEHLKALARKGVIEIVSGASRGIRLLQEEEEGLPLVGRVAADEPLLAQQHIEGHYQVDPSLFKPNADFLLRVSGMSMKDIGIMDGDLLAVHKTQDVRNGQVVVARIDDEVTVKRLKKQGNKVELLPENSEFKPIVVDLRQQSFTIEGLAVGVIRNGDWL | soluble |
| MKAPSYHVVRGDIATATEGVIINAANSKGQPGGGVCGALYKKFPESFDLQPIEVGKARLVKGAAKHIIHAVGPNFNKVSEVEGDKQLAEAYESIAKIVNDNNYKSVAIPLLSTGIFSGNKDRLTQSLNHLLTALDTTDADVAIYCRDKKWEMTLKEAVARREHHHHHH | soluble |
| MKAPVRVAVTGAAGQIGYSLLFRIAAGEMLGKDQPVILQLLEIPQAMKALEGVVMELEDCAFPLLAGLEATDDPKVAFKDADYALLVGAAPRKAGMERRDLLQVNGKIFTEQGRALAEVAKKDVKVLVVGNPANTNALIAYKNAPGLNPRNFTAMTRLDHNRAKAQLAKKTGTGVDRIRRMTVWGNHSSTMFPDLFHAEVDGRPALELVDMEWYEKVFIPTVAQRGAAIIQARGASSAASAANAAIEHIRDWALGTPEGDWVSMAVPSQGEYGIPEGIVYSFPVTAKDGAYRVVEGLEINEFARKRMEITAQELLDEMEQVKALGLI | soluble |
| MKARKAKEFVFNDLLSMESYCINHYSDYYSKSNFSCNVTQLSKGELVTSSICAPINDAHLEIFKSNQTILYEEEANQNSVAFCWINSNGEQAQTNTIISGHKMMDLSIAGFNRLNKTGGNVWDIVGANTQLCCMSLKWEKVKEKINQMNAYNAFAKLEECIGIDSNSSASIQLKSLFERHFTKGLRESEAFYDLAIATLEEPCDLEILTERSDKTELIEDLVKLLYEDREGMPPLTISEITKYLNTEKESLSIACRTNFDMPILDLIKSIRLEQVKKSYLNPHVPKGLKNFTKKQNALYYGFKNWTTFQKFYHQSFQESPDETINKSSKASVLVTDLFTRRS | not soluble |
| MKARSKKSVGIVALALLMGKVYAAPTPAACPDVSVIKQHQEGQGFVYTAPAPNNQQWRGENPRGDAKDINSIAFKSANIRNRSAITGNAFVACDYEGNSSAGIRMSLETLKVATPVGKAWNGLSCSESNPSACTFEY | not soluble |
| MKAVIFIMDGLGDRPNKDGNTPLKEAKTPVMDKMAKDGICGLMNAVDVGVRPGSDTAHLAILGYDPYTTYTGRGPFEACGVGVTVKPGDIAFRCNFSSVNENFIVTDRRAGRIEDTSELEKELDGLKIDDIDIIFKESGGYRAALVLRGPGLSDKISDADPKKEGKRVKEIHPLDNSKEAKKTAEIVNKLLKIAYEKLDKHPVNEERRKQNLPVANMIVPRGVGQVPEIMQFSEKTGLKGACIAGTGLIKGIAKMVGLDVIDVEGCDGTPNSDLMAKACAIVETLKDYDFILVNVKGADEAGHDGNYELKKEIIEKIDEMLDYITKNIDKDEVYIAMSGDHSTPIEEMDHSADPLPILIWGKSVRVDDVEKFDEFSTYKGGLNWIKGTNIMPILMDLMSIAKKYGA | not soluble |
| MKCGLEIHVQLDTRSKLFCRCPTDYQEAPPNTNICPVCLNQPGAKPYPPNRSALEGALKIALMLDCRINPEITYFMRKHYNYPDLPSGYQRTSIPVGLEGELNGVRIREVHIEEDPGQYKPDQGTVDFNRSGIPLIEIVTEPDMTSPEEARNFLRELIRVLEYSGCARGEGTMRADVNISLEGGKRVEIKNINSIKGAYKALKFEMIRQKNLLKRGVEVKQETRAFLESQMITVSMRLKEEAEDYRYIPDPDLPPMKFTDEVVEGLRERIPEAPHLKVKRFMEEYGLREEDARVLTSELELADAFEEVAGSIDPEFAALWMRDELKRVLYYNKISFAESMITPGDIIELLAMIRKKEITSKAAKKIIEEMPLNKKGPREIATEMGLIGIIDESEVIRAVEQAIRENPGAVEDYHAGKEAAINFLVGQVMRMTRGKAEPERTVELIKERI | soluble |
| MKCSKCQAEAIYFAKYNGLYLCREHFNDMIEKRVKSEIRNQVDLKKPMVRISVAISGGKDSSVTLYLLHKILSKRRNVELTAFTVDEGISGYRPAGLESAIKLTKMLGVDHSIIRFQDSFGMTLDSIVGADASRIPCSYCGPLRRKLINEMAERQNADYVALGLNLDDYSQSILMNVAKGDYDRLLRMSPQKEAKDGLVRRIAPLRSVLEKEVVLYAVINGIPFDSSWCPYYSRAQRNIFREVVNTLSEYNPSTKFSILKFFERARSDVQRNDKALGRCRICGAPTENDVCSACAAMESLRNERKASESELHAR | not soluble |
| MKDLIKVQQKLIPDLIDKMYRRFYILSTISQNQPVGRRSLSEHMDMTERVLRSETDMLKKQELIRVKPTGMEITNEGTEVLAQLGEYFNVYSDDHKLASAIKDKFHIKDVHVIPGDSDSNRTVKREMGQQAGQLLEGILYEDAIVSVTGGSTMACVSESIHLLPFNVFFVPARGGLGENVVYQANTIASSMAQQAGGYYTTLYVPDNVSESTYDTLMLEPSVMHTLDKIKQANITIHGIGDALKMAHRRQSSQNVIDNLQHHQAVGEAFGYYFDAQGQIVHKVKTIGLQLEDLENKDFIFAVAGGQSKGEAIKAYLSIAPENTVLITDEAAAKVILQ | not soluble |
| MKDSALTLKRVRIGKFSESMVEERPTLNLFEKVEFNPVPTALVDQLPTEPLVEATLLEKEAITFVDTYATSEAHDQIATFVLEQSMETEVVEKEAIETAIVAPAPDLVEEKAVLVEEVLVEPTATEAVTTEENQVSTTSVTKIKTKRSNTKKVTSETLVASKSVKTKKLITPNRVSSGNVNITLWQVDKKSTNLTKTKTDLFGKKHQFKGPQLISYKK | soluble |
| MKDVSKNQEENISDTALTNELIHLLGHSRHDWMNKLQLIKGNLSLQKYDRVFEMIEEMVIDAKHESKLSNLKTPHLAFDFLTFNWKTHYMTLEYEVLGEIKDLSAYDQKLAKLMRKLFHLFDQAVSRESENHLTVSLQTDHPDRQLILYLDFHGAFADPSAFDDIRQNGYEDVDIMRFEITSHECLIEIGLD | soluble |
| MKEDWPEPVKEYNTGQVLFDRLELTRTNEEENLAVWDMIAWYGGDYHRAVFKSEGENVQDDGEPTDLERAELLYGYLVSPFWSFQAGIGTRGTLSSDASMENYAVVSFMGLAPYWFEMDNSLMVNEEGDVQFVSETEYEWQLTQTSYLQPRIELTANLTDSDKYERQSGLSNLRVGLRYRHEISREFAPYIGVYWNGALGNTADEMKRMGKDTTETGVVLGARVWFLEHHHHHH | not soluble |
| MKEKGGDSLKYCYQCGLCDSVCPWNRVRQFSMRKIVRQGTFGLTEIEQEDIWRCSTCGTCPSRCPRGVNQIEAGVAMRRIGAEYDVYPGHVGTIRNVVASLTSEGNSLEHHHHHH | not soluble |
| MKEKIPFYNEKEFHDMVKKTKKGTFSGWYIINKNNNSVEFSGSFNRQFKLNKPVIPVNTEYVTRKEFNEYKDSNDQRLTKIETELKSQGQRIQVVEDKVDRLTEVVMVQSQQIKTQGEAMNARMDRFESLVLKSLESIGNTLTDFGKRLDVIETRLDKIDPPKLEHHHHHH | not soluble |
| MKEKVIVIGGGLAGSEAAWRLANEGHRVILYEMRPKKMTPAHKTGNLAELVCSNTLGGLELTTGAGLLKAEMQKLGSLVIEAAKVARVPAGGALGVDRKIFSEYITEKIESHPNITLIREEVKEIPEDEVVVIATGPLTSDALSEKIKELVGYDTLYFYDAIAPIVEAESVDFSKGFWGSRYGKGGDDYFNCVLTEEEYKKFYEELLKAEKVKPKDFEKAVHFEGCLPIEEMAERGYKTLLFGPMKPVGLVDPRTGKEPFAVVQLRKENKEGTLLSLVGFQTKLTYKEQKRVFRLIPCLRNAVFVRLGSMHRNTFIQSNKVLTHYLNLKKKENIFFAGQITGVEGYVASSATGILAGINAGRLARGEKPLKAPTETMLGALVNYIVTKEGELQPMNPVFGLLPPLEKKVRDKKKRKELMAKRALETMEKWIKENNLVPEGLVKVC | soluble |
| MKELVVVAIGGNSIIKDNASQSIEHQAEAVKAVADTVLEMLASDYDIVLTHGNGPQVGLDLRRAEIAHKREGLPLTPLANCVADTQGGIGYLIQQALNNRLARHGEKKAVTVVTQVEVDKNDPGFAHPTKPIGAFFSDSQRDELQKANPDWCFVEDAGRGYRRVVASPEPKRIVEAPAIKALIQQGFVVIGAGGGGIPVVRTDAGDYQSVDAVIDKDLSTALLAREIHADILVITTGVEKVCIHFGKPQQQALDRVDIATMTRYMQEGHFPPGSMLPKIIASLTFLEQGGKEVIITTPECLPAALRGETGTHIIKT | soluble |
| MKENIEKLFQAIAQKNPIHSKYLKKIEFSQEDEEEFDKLISYYIQDGISIKEQCDCYLLILNDTLEETKFFIENGAYRYSSFDEVKDKVYFNESYMKQYMIGLALSSFVWIAHIKVRKYFSQYLQNFTPKTTYFEIGPGHGEYFARAVKSGKFSAFYGLDISPTSCELTQKMVKQQVGGLITKCDFLCQDFFTYDFDKKADLIVIGEVLEHVEKPLEFLKRSKELLSDGGEIFATIPINAPAIDHIYLFSHPDEVKDLIEKSGLKFKAYECFMANDYSLEKALKFKNAITMAVVLNALEHHHHHH | soluble |
| MKETRDLETLSVNAIRFLAIDAVEKARSGHPGMPMGMAPLAYLLFREVMRHNPLDPDWPDRDRFVLSAGHGSMLLYAVLHLTGYDLPLEELKSFRQWGSKTPGHPERGHTPGVEVTTGPLGQGISTAVGLALAERKLAAEFNRPGHVVVDHYTYVLASDGDLMEGVSGEAASLAGHWGLSKLIVFWDDNRISIDGPTDLAFTEDVLARYRAYGWQTLRVEDVNDLEALRKAIKLAKLDERPTLIAVRSHIGFGSPKQDSAKAHGEPLGPEAVEATRRNLGWPYPPFVVPEEVYRHMDMREKGRAWQEAWEKALEAYARAYPDLHQELMRRLRGELPPLPEEPPSFDKPIATRAASGRALNLLAPRLPELLGGSADLTPSNNTKAEGMEDFSRANPLGRYLHFGVREHAMGAILNGLNLHGGYRAYGGTFLVFSDYMRPAIRLAALMGVPTVFVFTHDSIALGEDGPTHQPVEHLMSLRAMPNLFVIRPADAYETFYAWLVALRRKEGPTALVLTRQAVPLLSPEKARGLLRGGYVLEDVEEPQGVLVATGSEVHLALRAQALLREKGVRVRVVSLPSFELFAAQPEAYRKEVLPPGLPVVAVEAGASLGWERYAHKVVALDRFGASAPYPEVYERLGFTPERVAEAFLSLV | soluble |
